Assay results: paper PMC6114939

Legend:
p85α [1] = target: p85α (UniProt P27986); test: co-immunoprecipitation, immunoblot; settings: sites Y64
p85α [2] = target: p85α (UniProt P27986); test: His beads pull-down after kinase assay; settings: reference: WT His-PFKP with GST-EGFR; sites Y64

In the case of “PFKP (platelet isoform of phosphofructokinase 1) (from UniProt Q01813) Flag-rPFKP Y64F”, the “binding against the reference” value (p85α [1]; reference: WT Flag-rPFKP) is reported as “lost”.
“PFKP (platelet isoform of phosphofructokinase 1) (from UniProt Q01813) His-PFKP Y64F with GST-EGFR” was tested, and the “binding against the reference” value (p85α [2]) was “lost”.
With “PFKP (platelet isoform of phosphofructokinase 1) (from UniProt Q01813) Y64F” the “binding against the reference” value (p85α [1]; reference: wild-type tagged PFKP (presumed)) was “lost”.
